Columns and labels:
recombinant human IL-13 [1] = molecular target: T1, recombinant human IL-13 (human, UniProt P35225 34-146); test: cell-based or functional assay
recombinant human IL-13 [2] = molecular target: T1, recombinant human IL-13; test: Biacore; mAb13.2 immobilized on the chip, dose range of human IL-13 passed over
Procedure: (§1) Several measures were taken to confirm that the murine monoclonal antibody isolated in Example 1.1, i.e., mAb13.2, binds with high affinity and specificity to human IL-13. First, BIACORE™ analyses of three monoclonal antibodies to human IL-13 (mAb13.2, mAb13.4, and mAb13.9) were performed using a 69 RU streptavidin chip to which biotinylated IL-13 had been immobilized. […] Upon buffer exchange, dissociation was slow (FIG. 1). Second, BIACORE™ analysis of mAb13.2 was performed using a Biacore chip to which mAb13.2 had been immobilized. Different concentrations of IL-13 were passed over the chip. Again, rapid binding and slow dissociation was shown (FIG. 2). Third, analysis by ELISA determined that mAb13.2 bound to all forms of human IL-13 tested, including native IL-13 derived from cord blood T cells (FIG. 3). Plates were coated with anti-FLAG™ M2 antibody. The binding of FLAG™-human IL-13 was detected with biotinylated mAb13.2 and streptavidin-peroxidase. […] There was no detectable binding of mAb13.2 to recombinant murine IL-13 (FIG. 3). To confirm the results found by ELISA, the monoclonal antibody, mAb13.2, was coated onto a Biacore chip, and solutions containing recombinant human IL-13 or a polymorphic form of IL-13 (ARG variant), which is expressed at high frequency in patients suffering from asthma (Heinzmann et al. (2000) Hum. Mol. Genet. 9:594), were passed over the chip.

recombinant human IL-13 [3] = molecular target: T1, recombinant human IL-13; test: Biacore; biotinylated IL-13 immobilized on a 69 RU streptavidin (SA) chip, antibody passed over the chip
Procedure: as §1

FLAG-human IL-13 [4] = molecular target: T2, FLAG-human IL-13 (human, UniProt P35225 34-146); test: competition ELISA; human IL-13-FLAG immobilized with anti-FLAG antibody, detected with biotinylated mAb13.2; unlabeled antibody varied
T2 construct: Captured on ELISA plates by anti-FLAG M2 antibody; order of tag and IL-13 is not certain; also called IL-13-FLAG; human IL-13-FLAG; not shown: FLAG tag
Procedure: The chimeric antibody, ch13.2, was tested for IL-13 binding. […] Chimeric antibody, ch13.2, was able to competitively bind to IL-13 similarly to mAb13.2 (FIG. 14A). In another test, human peripheral blood monocytes were treated overnight with IL-13 to induce CD23 expression in the presence of various concentrations of mouse mAb13.2 or ch13.2.

recombinant murine IL-13 = molecular target: T3, recombinant murine IL-13 (murine, UniProt P20109 19-131, limits assumed); test: competition ELISA; FLAG-human IL-13 captured on anti-FLAG M2 plates and detected with biotinylated mAb13.2 and streptavidin-peroxidase; soluble IL-13 added as competitor of FLAG-human IL-13
T3 sequence (looked up): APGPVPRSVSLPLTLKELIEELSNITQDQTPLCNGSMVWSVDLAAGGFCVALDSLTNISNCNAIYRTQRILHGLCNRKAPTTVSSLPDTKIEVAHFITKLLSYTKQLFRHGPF
Procedure: as §1

recombinant human IL-13 [5] = molecular target: T1, recombinant human IL-13; test: competition ELISA; competitor mAb13.2
FLAG-human IL-13 [6] = molecular target: T2, FLAG-human IL-13; test: competition ELISA; IL-13-FLAG immobilized with anti-FLAG antibody, detected with biotinylated mAb13.2; unlabeled antibody varied
recombinant human IL-13 [7] = molecular target: T1, recombinant human IL-13; test: Biacore; h13.2v2 immobilized on the chip, dose range of human IL-13 passed over
[8] = molecular target: T4, IL-13 captured by IL-13Rα2 on the surface of A375 human melanoma cells (human, UniProt Q14627 27-380); test: flow cytometry; A375 cells pre-incubated with 3 ng/ml hu IL13, stained with biotinylated h13.2v2
T4 construct: whole, on cells; Recombinant human IL-13 (3 ng/ml, or 10 ng/ml for ADCC) contacted to A375 cells; also called IL-13-loaded A375 cells; cells expressing IL-13Rα2
From the text: The cell signaling form of the IL-13 receptor, which includes the IL-13Rα1 and IL-4Rα polypeptides, is found on the surface of cell types that respond to the cytokine. IL-13Rα2 is not typically expressed on the surface of IL-13-responsive cells, but has been reported on tumors of the brain, head, and neck (Kawakami et al. (2003) Clin. Cancer Res. 9:6381-8; Mintz et al. (2002) Neoplasia 4:388-99; Liu et al. (2000) Cancer Immunol. Immunother. 49:319-24). IL-13Rα2 expression may also be induced on IFNγ-treated primary human monocytes (Daines et al. (2002) J. Biol. Chem. 277:10387-93), or TNFα- or IL-13-treated primary human fibroblasts (Yoshikawa et al. (2003) Biochem. Biophys. Res. Commun. 312:1248-55). This receptor is not competent to mediate signaling responses to IL-13 (Kawakami et al. (2001) Blood 97:2673-9), but instead appears to act as a decoy receptor, competing for productive IL-13 interactions with IL-13Rα1 (Feng et al. (1998) Lab. Invest. 78:591-602). IL-13Rα2 has a high affinity for IL-13 (Andrews et al. (2002) J. Biol. Chem. 277:46073-8), and appears to interact primarily with the C-terminal region of the cytokine (Madhankumar et al. (2002) J. Biol. Chem. 277:43194-205), which is not predicted to include the h13.2v2 binding site. Therefore, it was examined whether h13.2v2 could interact with IL-13 captured by IL-13Rα2 on the cell surface. […]

T2 sequence (P35225 other isoform, or with tags, fused parts or gaps limits assumed): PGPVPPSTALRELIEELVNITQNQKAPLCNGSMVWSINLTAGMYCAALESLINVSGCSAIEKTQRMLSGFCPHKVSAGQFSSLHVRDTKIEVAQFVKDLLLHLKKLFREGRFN
T1 sequence (P35225 other isoform, or with tags, fused parts or gaps): as the sequence (P35225 other isoform, or with tags, fused parts or gaps limits assumed) above
T4 sequence (chain, as listed by the source, chain 1 of 2): as the sequence (P35225 other isoform, or with tags, fused parts or gaps limits assumed) above
T4 sequence (Q14627 27-380, chain 2 of 2): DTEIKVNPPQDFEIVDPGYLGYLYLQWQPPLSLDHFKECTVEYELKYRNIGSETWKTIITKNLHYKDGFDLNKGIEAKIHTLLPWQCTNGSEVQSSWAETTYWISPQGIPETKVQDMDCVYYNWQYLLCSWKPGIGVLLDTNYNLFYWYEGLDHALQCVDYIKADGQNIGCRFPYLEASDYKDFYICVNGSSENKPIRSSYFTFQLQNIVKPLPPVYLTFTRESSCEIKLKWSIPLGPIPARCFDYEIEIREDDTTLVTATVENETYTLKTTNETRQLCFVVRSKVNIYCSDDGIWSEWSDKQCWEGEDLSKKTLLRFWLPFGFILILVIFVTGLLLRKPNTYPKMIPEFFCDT

B1: murine monoclonal antibody mAb13.2 (antibody, V domains shown)
VH: EVKLVESGGGLVKPGGSLKLSCAASGFTFISYAMSWVRQTPEKRLEWVASISSGGNTYYPDSVKGRFTISRDNARNILYLQMSSLRSEDTAMYYCARLDGYYFGFAYWGQGTTVTVSS
VL: DIVLTQSPASLAVSLGQRATISCKASESVDNYGKSLMHWYQQKPGQSPKLLIYRASNLESGIPARFSGSGSRTDFTLTINPVEADDVATYYCQQSNEDPWTFGGGTKLEIK
notes: also called mouse mAb13.2; biotinylated mAb13.2
IC50 (read off the curve), TF1 proliferation (recombinant human IL-13 [1]): ~0.3 nM | Ka (recombinant human IL-13 [2]): 2.1e+09 M⁻¹ | Kd (recombinant human IL-13 [2]): 0.47 nM | Ka (recombinant human IL-13 [3]): 4e+10 M⁻¹ | Kd (recombinant human IL-13 [3]): 0.025 nM | koff (recombinant human IL-13 [3]): 2.7e-06 s⁻¹ | kon (recombinant human IL-13 [3]): 110000 M⁻¹ s⁻¹ | IC50 (read off the curve) (FLAG-human IL-13 [4]): ~1 nM | binding result (recombinant murine IL-13): no binding (tested: about 3000 ng/ml)

B2: chimeric mAb13.2 antibody (ch13.2) (antibody, human IgG1, kappa, V domains shown)
VH: EVKLVESGGGLVKPGGSLKLSCAASGFTFISYAMSWVRQTPEKRLEWVASISSGGNTYYPDSVKGRFTISRDNARNILYLQMSSLRSEDTAMYYCARLDGYYFGFAYWGQGTTVTVSS
VL: DIVLTQSPASLAVSLGQRATISCKASESVDNYGKSLMHWYQQKPGQSPKLLIYRASNLESGIPARFSGSGSRTDFTLTINPVEADDVATYYCQQSNEDPWTFGGGTKLEIKR
IC50 (read off the curve) (FLAG-human IL-13 [4]): ~1 nM

B3: partially humanized mAb13.2 (h13.2v1) (antibody, human IgG1, kappa, V domains shown)
VH: EVKLVESGGGLVQPGGSLRLSCAASGFTFISYAMSWVRQAPGKGLEWVASISSGGNTYYPDSVKGRFTISRDNAKNSLYLQMNSLRAEDTAVYYCARLDGYYFGFAYWGQGTLVTVSS
VL: DIQLTQSPSSLSASVGDRVTITCKASESVDNYGKSLMHWYQQKPGKAPKLLIYRASNLESGVPSRFSGSGSRTDFTLTISSLQPEDFATYYCQQSNEDPWTFGGGTKVEIKR
notes: Human IgG1 mutated (L234A/G237A), human kappa; also called hu13.2 V1
binding result (recombinant human IL-13 [5]): binds | binding result (FLAG-human IL-13 [6]): binds

B4: fully humanized mAb13.2 (h13.2v2) (antibody, human IgG1, kappa, V domains shown)
VH: EVQLVESGGGLVQPGGSLRLSCAASGFTFISYAMSWVRQAPGKGLEWVASISSGGNTYYPDSVKGRFTISRDNAKNSLYLQMNSLRAEDTAVYYCARLDGYYFGFAYWGQGTLVTVSS
VL: DIQMTQSPSSLSASVGDRVTITCKASESVDNYGKSLMHWYQQKPGKAPKLLIYRASNLESGVPSRFSGSGSGTDFTLTISSLQPEDFATYYCQQSNEDPWTFGGGTKVEIKR
notes: Human IgG1 mutated (L234A/G237A), human kappa; also called hu13.2 V2; biotinylated h13.2v2
Ka (recombinant human IL-13 [7]): 9.3e+09 M⁻¹ | Kd (recombinant human IL-13 [7]): 0.11 nM | binding result [8]: binds

B5: fully humanized mAb13.2 (h13.2v3) (antibody, human IgG1, kappa, V domains shown)
VH: EVQLVESGGGLVKPGGSLRLSCAASGFTFISYAMSWVRQAPGKGLEWVSSISSGGNTYYPDSVKGRFTISRDNAKNSLYLQMNSLRAEDTAVYYCARLDGYYFGFAYWGQGTTVTVSS
VL: DIVLTQSPASLAVSPGQRATITCKASESVDNYGKSLMHWYQQKPGQPPKLLIYRASNLESGVPARFSGSGSGTDFTLTINPVEANDTANYYCQQSNEDPWTFGGGTKVEIKR
binding result (recombinant human IL-13 [5]): binds

From patent US20060063228A1 (Pfizer, published 2006)
